± gives the standard deviation of the averaged measurements.
Tested on: ATP
Test: switch fluorescence ratio, 500 uM ATP over buffer (Cy3 cluster intensity, sum of 5 cycles each) (fold (ratio)); higher = stronger signal-on switching upon ATP binding; sequences stand for … in TCGTCGGCAGCGTCAGATGTGTATAAGAGACAGTTTTTTTTTTTTTTTTTTTTTTTTT…TC
Settings: aptamer strand: ATP DNA aptamer (quencher-CACCTGGGGGAGTATTGCGGAGGAAGG + anchor), 100 nM annealed; ATP concentration: 500 uM
Method in brief: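 The quencher-labelled ATP aptamer, at 100 nM, was annealed to Cy3-labelled switching-strand clusters on a modified Illumina MiSeq flow-cell. The clusters were imaged in selection buffer, then after 15 min with 500 uM ATP at 22 °C, and this buffer/ATP cycle ran five times with NaOH stripping and re-annealing between runs. Per-cluster fluorescence ratios, summed target-cycle over summed buffer-cycle Cy3 intensity, were averaged per switch-domain sequence. Clusters outside 100-1000 RFU were excluded.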
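Also: ATP exposure 15 min at 22 °C before imaging.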

Row | Sequence | switch fluorescence ratio
1 | CTAACGAGGG | 0.9731 ± 0.0043
2 | CTAACGGTTT | 0.976 ± 0.028
3 | CTAACTAAGG | 1.015 ± 0.0095
4 | CTAAGATAGG | 1.01 ± 0.029
5 | CTAAGGAGGG | 0.989 ± 0.021
6 | CTAAGTCGAG | 0.966 ± 0.037
7 | CTAAGTTCTT | 0.987 ± 0.008
8 | CTAATAATCG | 1 ± 0.015
9 | CTAATATCAC | 1.02 ± 0.012
10 | CTAATATTAG | 1 ± 0.086
11 | CTAATGGAAA | 0.998 ± 0.026
12 | CTAATGGACA | 1.01 ± 0.025
13 | CTAATTTAGT | 1.01 ± 0.014
14 | CTAATTTTTC | 0.9878 ± 0.0026
15 | CTACAAAAAA | 1.02 ± 0.034
16 | CTACATCTTA | 1.02 ± 0.018
17 | CTACGGGGCT | 1.01 ± 0.02
18 | CTACGTTGGA | 1.03 ± 0.02
19 | CTACTAATTA | 1.026 ± 0.0031
20 | CTACTGCCGT | 1.02 ± 0.034
21 | CTACTTTTTT | 1.01 ± 0.023
22 | CTAGCACGGA | 0.9713 ± 0.0093
23 | CTAGCATGGG | 0.999 ± 0.029
24 | CTAGCTGACC | 1.11 ± 0.046
25 | CTAGCTGCGA | 1.08 ± 0.055
26 | CTAGCTGTAG | 1.04 ± 0.03

Row | Sequence | switch fluorescence ratio
27 | CTAGGAGGGC | 1 ± 0.027
28 | CTAGGATCTA | 0.996 ± 0.062
29 | CTAGGCCGGG | 0.98 ± 0.025
30 | CTAGGCTAGG | 0.9885 ± 0.0012
31 | CTAGGGAAAG | 0.989 ± 0.057
32 | CTAGGGCATA | 1.05 ± 0.047
33 | CTAGGGCGGA | 1.01 ± 0.021
34 | CTAGGGGAGA | 1.018 ± 0.0038
35 | CTAGGGGGGA | 0.997 ± 0.0052
36 | CTAGGTAAAC | 1.06 ± 0.012
37 | CTAGGTACTT | 1.03 ± 0.037
38 | CTAGGTGATC | 1.07 ± 0.044
39 | CTAGGTGCAA | 1.19 ± 0.091
40 | CTAGGTTCTG | 1.015 ± 0.0043
41 | CTAGTAAAGT | 0.977 ± 0.037
42 | CTAGTATGGA | 1.02 ± 0.031
43 | CTAGTTAAAC | 1.01 ± 0.02
44 | CTAGTTGATG | 0.991 ± 0.022
45 | CTAGTTGGAT | 0.9908 ± 0.0053
46 | CTAGTTTGAG | 1.01 ± 0.01
47 | CTATACGGCA | 1.09 ± 0.011
48 | CTATACTTGG | 0.98716 ± 0.00098
49 | CTATATTTTT | 1.01 ± 0.025
50 | CTATCATAGT | 0.98 ± 0.032
51 | CTATCATCAT | 0.9978 ± 0.0084
52 | CTATCTATTG | 0.9923 ± 0.0014

Row | Sequence | switch fluorescence ratio
53 | CTATGAGTTT | 0.993 ± 0.013
54 | CTATGGAGTG | 0.9928 ± 0.0039
55 | CTATGTTGGT | 0.9562 ± 0.0062
56 | CTATGTTTTG | 0.979 ± 0.017
57 | CTATTACTTA | 1.02 ± 0.032
58 | CTATTAGATG | 0.994 ± 0.03
59 | CTATTAGGGT | 0.999 ± 0.052
60 | CTATTGAATC | 1.022 ± 0.0015
61 | CTATTGATGG | 0.996 ± 0.015
62 | CTATTTAGTC | 0.9496 ± 0.0052
63 | CTCAAATATG | 1.002 ± 0.0051
64 | CTCACCCGGA | 1.18 ± 0.012
65 | CTCACGACGT | 1.07 ± 0.019
66 | CTCACTATGA | 0.99239 ± 0.0009
67 | CTCAGAAACG | 1.03 ± 0.04
68 | CTCAGATGAT | 0.988 ± 0.013
69 | CTCAGGCTTG | 0.997 ± 0.052
70 | CTCAGGTGTT | 1.73 ± 1
71 | CTCATAGCGC | 1.02 ± 0.035
72 | CTCATATTCA | 1.02 ± 0.027
73 | CTCATTAAGG | 1.01 ± 0.016
74 | CTCCAAGTGA | 1.315 ± 0.0062
75 | CTCCAATAGT | 1.79 ± 0.044
76 | CTCCGAATTT | 2.17 ± 0.35
77 | CTCCGAGGGG | 1.31 ± 0.21
78 | CTCCGGGCGA | 4.47 ± 1

Row | Sequence | switch fluorescence ratio
79 | CTCCGGGGTT | 1.85 ± 0.35
80 | CTCCTAAATG | 1.19 ± 0.015
81 | CTCCTAGTCA | 1.05 ± 0.061
82 | CTCCTCGTGC | 3.49 ± 0.47
83 | CTCCTGGACT | 1.069 ± 0.0061
84 | CTCGAAGTTG | 0.9692 ± 0.0025
85 | CTCGCCAGGG | 1.41 ± 0.032
86 | CTCGGACGGG | 0.995 ± 0.046
87 | CTCGGGATGG | 1.74 ± 0.98
88 | CTCGGGCATT | 1.23 ± 0.052
89 | CTCGGGGATG | 0.976 ± 0.013
90 | CTCGGGGTTG | 1.022 ± 0.008
91 | CTCGTAGCAG | 1.17 ± 0.013
92 | CTCGTCCCCG | 0.994 ± 0.06
93 | CTCGTGCCCG | 1.05 ± 0.075
94 | CTCGTGGCGG | 1.02 ± 0.076
95 | CTCGTTCTAT | 1.002 ± 0.0057
96 | CTCGTTGAAG | 0.979 ± 0.032
97 | CTCGTTGGGG | 0.979 ± 0.015
98 | CTCGTTGTGG | 1.25 ± 0.37
99 | CTCTAAGT | 1.01 ± 0.017
100 | CTCTAGCTTT | 1.09 ± 0.075
101 | CTCTATTGTG | 0.964 ± 0.027
102 | CTCTCAAGGT | 1.05 ± 0.018
103 | CTCTGAAATC | 2.997 ± 0.01
104 | CTCTGAGGGC | 1.07 ± 0.057

Row | Sequence | switch fluorescence ratio
105 | CTCTGCGTCA | 1.32 ± 0.025
106 | CTCTGTATGT | 1.035 ± 0.0081
107 | CTCTGTGGAC | 2.11 ± 0.27
108 | CTCTGTTACA | 1.04 ± 0.038
109 | CTCTTGTGTT | 1.02 ± 0.048
110 | CTCTTTCTAC | 2.05 ± 1.3
111 | CTCTTTGGGG | 0.976 ± 0.013
112 | CTGAAACAGC | 1.06 ± 0.043
113 | CTGAAAGGGT | 1.01 ± 0.011
114 | CTGAAGGATT | 1.01 ± 0.011
115 | CTGAAGGGGG | 0.967 ± 0.058
116 | CTGAAGTCTG | 1.019 ± 0.0084
117 | CTGAATCCTA | 1.01 ± 0.017
118 | CTGACACCCG | 1.07 ± 0.039
119 | CTGACCGGTC | 1.017 ± 0.0087
120 | CTGAGAATGG | 1.02 ± 0.011
121 | CTGAGAGAAT | 1.27 ± 0.46
122 | CTGAGATCTC | 1.02 ± 0.011
123 | CTGAGGCTGA | 1.12 ± 0.11
124 | CTGAGGGAAA | 0.988 ± 0.029
125 | CTGAGGGAGC | 1.09 ± 0.061
126 | CTGATAGTTG | 1.04 ± 0.0013
127 | CTGATGGGGT | 1 ± 0.013
128 | CTGATGTGGC | 1.06 ± 0.011
129 | CTGATGTTTT | 0.9747 ± 0.0063
130 | CTGATTACGC | 1.37 ± 0.016

Row | Sequence | switch fluorescence ratio
131 | CTGATTATGT | 1.02 ± 0.015
132 | CTGATTTTAG | 1.02 ± 0.071
133 | CTGCAAGGGA | 1.06 ± 0.051
134 | CTGCAAGGGT | 1.214 ± 0.011
135 | CTGCCAGGTT | 1.146 ± 0.0052
136 | CTGCCCTCGC | 1.094 ± 0.0089
137 | CTGCTAGACC | 1.21 ± 0.036
138 | CTGCTCGTAA | 1.99 ± 0.18
139 | CTGCTCTGGG | 1.02 ± 0.017
140 | CTGCTGCAGG | 1.03 ± 0.044
141 | CTGGAAATTT | 1 ± 0.027
142 | CTGGAATCCG | 1.08 ± 0.015
143 | CTGGAATTTT | 0.9949 ± 0.0028
144 | CTGGACAGTA | 1.01 ± 0.027
145 | CTGGACATGT | 0.97556 ± 7.2e-05
146 | CTGGATGACA | 0.986 ± 0.092
147 | CTGGCAGAAA | 1.02 ± 0.043
148 | CTGGCCAGTT | 1 ± 0.013
149 | CTGGCGAGGG | 1.01 ± 0.026
150 | CTGGCGAGTA | 1.01 ± 0.016
151 | CTGGCTGGTG | 1.1 ± 0.026
152 | CTGGCTGTCT | 1.02 ± 0.036
153 | CTGGCTTGAC | 0.983 ± 0.0052

From the supplement of paper PMC10126150
